Source: publication PMC6450724 (Molecular cell, 2019)
Like-named read-outs stand apart in the source and are kept apart here. Values belong to the molecule of their own block, whether it stands above or below them.

Legend:
[1] = target: DnaC (with DnaB^KAEA and M13 ssDNA) (Escherichia coli, UniProt P0AEF0); assay: coupled pyruvate kinase/lactate dehydrogenase ATPase assay, A340; format: biochemical; settings: DnaB K236A/E262A and M13 ssDNA present; 10 mM MgCl2, pH 7.5, 37 °C
[2] = target: E. coli DnaB replicative helicase, wild type (E. coli) (UniProt P0ACB0); assay: cryo-EM structure
[3] = target: E. coli DnaB replicative helicase, wild type (E. coli) (UniProt P0ACB0); assay: cryo-EM structure; remark: listed apart in the source
cryo-EM structure = target: the molecule itself; assay: cryo-EM structure

Molecule: Nc1ncnc2c1ncn2[C@@H]1O[C@H](COP(=O)(O)OP(=O)(O)OP(=O)(O)O)[C@@H](O)[C@H]1O [ATP]
Km [1]: DnaC follows apparent Michaelis-Menten behavior

stoichiometry N [2]: 6
stoichiometry N [3]: 6
Molecule: E. coli DnaB replicative helicase, wild type (from UniProt P0ACB0 1-471) (enzyme)

B1: E. coli DnaC helicase loader, wild type (enzyme, UniProt P0AEF0 1-245, looked up)
chain: MKNVGDLMQRLQKMMPAHIKPAFKTGEELLAWQKEQGAIRSAALERENRAMKMQRTFNRSGIRPLHQNCSFENYRVECEGQMNALSKARQYVEEFDGNIASFIFSGKPGTGKNHLAAAICNELLLRGKSVLIITVADIMSAMKDTFRNSGTSEEQLLNDLSNVDLLVIDEIGVQTESKYEKVIINQIVDRRSSSKRPTGMLTNSNMEEMTKLLGERVMDRMRLGNSLWVIFNWDSYRSRVTGKEY
stoichiometry N (cryo-EM structure): 6
